Data taken from patent publication US20140024038A1, “METHOD AND REAGENTS FOR TREATING HEPATIC FIBROSIS AND INFLAMMATION” (Agency for Science, Technology and Research, priority 2006, published 2014).

Columns and labels:
Assay type in all cases: cell-based, rat
[1] = system: HSC-T6, activated HSCs and CFSC-3H; assay: Cathepsin S activity measurement in HSCs after IFN-γ induction (BioVision kit, fluorogenic substrate); settings: IFN-γ 10 ng/ml, 48 h, P<0.05 vs untreated, FIG. 9
Method: The cells were grown in cell culture medium containing 10% FBS in 75 cm^2 flasks. When the cells reached 50-60% confluence, IFN-γ was added at 10 ng/ml or omitted as untreated sample. The cells were harvested 48 h later and resuspended in CS cell lysis buffer. Cathepsin S activity was measured using a kit from BioVision (K1101-01) according to the provided manual. The final substrate concentration was 200 μM. Emitted fluorescence was measured using the Tecan Satire II (Tecan, Zurich, Switzerland) fluorescence plate reader at λex: 400 nm and λem: 505 nm. An AFC standard curve was used to calculate the released fluorophore in μM per μg protein per hour at 37° C.
To further investigate the induction of cathepsin S by IFN-γ, activity measurement was performed to directly detect cathepsin S in activated HSCs and both cell lines. FIG. 9 depicts the cathepsin S activity in activated HSCs and two different cell lines. The cells were grown in cell culture medium containing 10% FBS. When they reached 50-60% confluence, IFN-γ was added or omitted as control. The cells were harvested 48 h later and resuspended in CS cell lysis buffer. Cathepsin S activity was measured using a final substrate concentration of 200 μM. The specific activity is given in released fluorophore (AFC) in μM per μg protein per hour at 37° C. Data are presented as mean±SD*P<0.05.

[2] = system: HSC-T6, activated HSCs and CFSC-3H; assay: Real-time RT-PCR of Cat S, Cat L, CD74, CIITA and RT1-Dα after IFN-γ treatment
Method: HSC-T6, CFSC-3H and activated HSCs were plated into 75 cm^2 culture flasks and grown overnight at conditions described above. The cells at a confluence of 60-70% were incubated with 10 ng/ml final concentration (equivalent to 100 U/ml) of recombinant rat IFN-γ for 2, 4, 8 and 24 h. The recombinant rat interferon-γ (IFN-γ) was purchased from BioVision (CA, USA). Total RNA was isolated using the NucleoSpin RNAII isolation kit (Macherey & Nagel, Germany) according to the manufacturer's protocol. The RNA concentration was measured with the ND-100 spectrophotometer (NanoDrop Technologies, DE, USA).
Real-time PCR was performed using the ABI 7500 Real Time PCR System (Applied Biosystems, CA, USA). All reagents were purchased from this company unless otherwise stated. Total RNA was reverse transcribed to cDNA using reagents from the cDNA archive kit (4322171). 10 μg of total RNA was used in a total reverse transcription reaction volume of 100 μl. The RT step was performed for 10 min at 25° C. and 2 h at 37° C. In real-time PCR, 20× TaqMan gene expression assay mix of Cat S (Rn01534427_m1), Cat L (Rn00565793_m1), CD74 (Rn01491430_g1), CIITA (Rn01424723_g1) and RT1-Dα (Rn02346209g1), as well as 20×18s rRNA (4319413E) were used. For each real-time target, the reaction comprises of 3 μl cDNA, 0.5 μl 20×18S rRNA, 0.5 μl 20× TaqMan gene expression assay, 1 μl nuclease-free water and 5 μl TaqMan Universal PCR master mix (4352042). Conditions for PCR were 2 min 50° C., 10 min 95° C. and 40 cycles of 15 s 95° C. and 1 min 60° C. The comparative threshold method was used to quantitate relative changes of target mRNA (User Bulletin #2, Applied Biosystems). Relative quantitation of target mRNA was expressed as fold change in gene expression to control (untreated). The data presented are representative for three independent experiments with the same trend. The graphs were made using OrignPro 7 (OriginLab, MA, USA).
FIG. 3A-3C depicts a quantitative analysis of the change in cathepsin S, CIITA, CD74 and RT1-Dα transcript level upon treatment with IFN-γ using real-time RT-PCR. After treatment with IFN-γ for 2, 4, 8 and 24 h, total RNA was extracted from the three different HSCs (activated HSC, HSC-T6 and CFSC-3H). The RNA was reverse transcribed and real-time RT-PCR was performed using TaqMan assays. The results were expressed as fold change in gene expression compared to the untreated samples using the relative quantification method for HSC-T6 (FIG. 3A), activated HSCs (FIG. 3B) and CFSC-3H (FIG. 3C).

[3] = system: HSC-T6 and activated HSCs; assay: Immunofluorescence staining of CD74, RT1-B and cathepsin S proteins after IFN-γ treatment
Method: The primary cells were grown in DMEM supplemented with 10% FBS on glass cover slips in 24-well culture plates prior to staining with antibodies against GFAP, SMAA, Desmin, RECA-1, ED-2, cathepsin S, RT1-B and CD74. At 60-70% confluence, the cells were washed once with sterile PBS and fixed with 4% paraformaldehyde (PFA) for 30 min at 4° C., followed by three washes with PBS. The cells were blocked and permeabilized in blocking solution (10% horse serum, 0.1% Triton X-100 in PBS) for 1 h at 37° C. The primary antibody was incubated in 10% blocking solution in PBS for 1 h at 37° C. followed by the secondary antibody under the same conditions. The primary antibody was omitted as a negative control. All images were taken with the LEICA DM IRB epifluorescence microscope using a 63× objective.
For induction experiments, IFN-γ was added to the cell culture at low confluence and the cells were cultivated further for different times depending on the targets to be stained (Cat S: 0, 4, 8, 24, 30 h; CD74: 0, 8, 24, 30 h; and RT1-B: 0, 24, 48 h). The presented images are representative for 3 experiments. Images were taken with a 40× objective. The fluorescence intensities from 3 to 7 different fields of vision of one representative experiment were quantified using the Image processing toolbox of the MATLAB platform (MathWorks, MA, USA). The following antibodies were used in the immunofluorescent staining. Anti-Cat S antibody (sc-6505) and anti-CD74 antibody (sc-5438) were from Santa Cruz Biotechnology (CA, USA); anti-RT1-B antibody (554926) was from BD Pharmingen (CA, USA); anti-GFAP antibody (Z 0334) was from Dako (CA, USA); and anti-SMAA-Cy3 (C 6198) and antidesmin antibody (D 8281) were from Sigma Chemicals (MO, USA). The anti-RECA-1 antibody (MCA970) and anti-ED-2 (CD163, MCA342R) were from Serotec (Oxford, UK). […]
For these experiments, we used the HSC-T6 and the activated HSCs. […] FIG. 5A and FIG. 5C show the immunofluorescence staining with anti-CD74 antibody after 30 h of IFN-γ induction for HSC-T6 and activated HSCs respectively (arrows depict the increase in fluorescence). […]

[4] = IFN-γ 10 ng/ml, 2-24 h, HSC-T6, activated HSCs, CFSC-3H, vs untreated

B1: IFN-γ: recombinant rat interferon-γ purchased from BioVision, proinflammatory cytokine (protein, UniProt P01581 23-156, looked up)
Interferon gamma: QGTLIESLESLKNYFNSSSMDAMEGKSLLLDIWRNWQKDGNTKILESQIISFYLRLFEVLKDNQAISNNISVIESHLITNFFSNSKAKKDAFMSIAKFEVNNPQIQHKAVNELIRVIHQLSPESSLRKRKRSRC
cathepsin S specific activity [1]: significant increase
CIITA type III transcript ([2]; HSCs, data not shown): inducible
increase in CIITA transcript level in activated HSCs relative to HSC-T6 and CFSC-3H ([2]; IFN-γ 10 ng/ml): > 20 times
CIITA transcript level [2, 4]: started to increase at an early time point
cathepsin S transcript level [2, 4]: upregulated
mRNA expression of RT1-Dα and CD74 ([2]; IFN-γ 10 ng/ml, at a later time, indirectly through CIITA): induced
cathepsin L mRNA level ([2]; IFN-γ 2, 4, 8 and 24 h, activated HSCs, HSC-T6, CFSC-3H, FIG. 4): no influence
cathepsin L mRNA expression in CFSC-3H ([2]; after 8 h IFN-γ, CFSC-3H): decreased
cathepsin S expression on the protein level ([3]; IFN-γ 8 h, quantified fluorescence intensities, FIG. 8): significant increase
CD74 protein expression ([3]; IFN-γ 30 h): significantly induced
RT1-B protein expression ([3]; IFN-γ 48 h): induced
